In PMC7283332 (2020):
Substitutions are numbered along the chain they refer to. Numbers in names are those of the source.

T1: Fc-wtNKG2D (human, UniProt P26718 78-216)
T1 chain: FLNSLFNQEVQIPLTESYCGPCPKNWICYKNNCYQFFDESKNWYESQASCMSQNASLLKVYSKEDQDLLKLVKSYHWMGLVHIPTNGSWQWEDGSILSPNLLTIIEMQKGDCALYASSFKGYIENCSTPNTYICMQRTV

B1: Fc-iNKG2D.YA (Fc fusion)
chain: T1 chain with Y75A
modifications: biotinylated only in the ELISA on coated ligand-Fc proteins
B2: ULBP2.R81W, monomeric α1α2 domain (domain or fragment)
chain: DPHSLCYDITVIPKFRPGPRWCAVQGQVDEKTFLHYDCGNKTVTPVSPLGKKLNVTTAWKAQNPVLREVVDILTEQLWDIQLENYTPKEPLTLQARMSCEQKAEGHSSGSWQFSFDGQIFLLFDSEKRMWTTVHPGARKMKEKWENDKVVAMSFHYFSMGDCIGWLEDFLMGMDSTLEPSAGAP
B3: ULBP2 α1α2 domain, C-terminal 6×-His (domain or fragment)
chain: B2 chain with W78R

Experiments:
Experiment in all cases: BLI
[1] = target: ULBP2.S3 (U2S3), monomeric α1α2 domain variant (human, UniProt Q9BZM5)
[2] = target: B1
[3] = target: T1, Fc-wtNKG2D

| Kd [1] [nM] | Kd [2] [µM] | Kd [3] [nM] | Binder |
| --- | --- | --- | --- |
| 28 | – | – | B1 |
| – | 3.6 | 8 | B2 |
| – | – | 350 | B3 |
